Test results taken from IntAct's records for PubMed 23263556.

B1: Nuclear factor of activated T-cells, cytoplasmic 1 (Homo sapiens), O95644 (parent)
chain: MPSTSFPVPSKFPLGPAAAVFGRGETLGPAPRAGGTMKSAEEEHYGYASSNVSPALPLPTAHSTLPAPCHNLQTSTPGIIPPADHPSGYGAALDGGPAGYFLSSGHTRPDGAPALESPRIEITSCLGLYHNNNQFFHDVEVEDVLPSSKRSPSTATLSLPSLEAYRDPSCLSPASSLSSRSCNSEASSYESNYSYPYASPQTSPWQSPCVSPKTTDPEEGFPRGLGACTLLGSPRHSPSTSPRASVTEESWLGARSSRPASPCNKRKYSLNGRQPPYSPHHSPTPSPHGSPRVSVTDDSWLGNTTQYTSSAIVAAINALTTDSSLDLGDGVPVKSRKTTLEQPPSVALKVEPVGEDLGSPPPPADFAPEDYSSFQHIRKGGFCDQYLAVPQHPYQWAKPKPLSPTSYMSPTLPALDWQLPSHSGPYELRIEVQPKSHHRAHYETEGSRGAVKASAGGHPIVQLHGYLENEPLMLQLFIGTADDRLLRPHAFYQVHRITGKTVSTTSHEAILSNTKVLEIPLLPENSMRAVIDCAGILKLRNSDIELRKGETDIGRKNTRVRLVFRVHVPQPSGRTLSLQVASNPIECSQRSAQELPLVEKQSTDSYPVVGGKKMVLSGHNFLQDSKVIFVEKAPDGHHVWEMEAKTDRDLCKPNSLVVEIPPFRNQRITSPVHVSFYVCNGKRKRSQYQRFTYLPANVPIIKTEPTDDYEPAPTCGPVSQGLSPLPRPYYSQQLAMPPDPSSCLVAGFPPCPQRSTLMPAAPGVSPKLHDLSPAAYTKGVASPGHCHLGLPQPAGEAPAVQDVPRPVATHPGSPGQPPPALLPQQVSAPPSSSCPPGLEHSLCPSSPSPPLPPATQEPTCLQPCSPACPPATGRPQHLPSTVRRDESPTAGPRLLPEVHEDGSPNLAPIPVTVKREPEELDQLYLDDVNEIIRNDLSSTSTHS

Variants of: B1
Details: with jak3_human JAK3, P52333
Chain of jak3_human JAK3, P52333 (P52333 whole entry): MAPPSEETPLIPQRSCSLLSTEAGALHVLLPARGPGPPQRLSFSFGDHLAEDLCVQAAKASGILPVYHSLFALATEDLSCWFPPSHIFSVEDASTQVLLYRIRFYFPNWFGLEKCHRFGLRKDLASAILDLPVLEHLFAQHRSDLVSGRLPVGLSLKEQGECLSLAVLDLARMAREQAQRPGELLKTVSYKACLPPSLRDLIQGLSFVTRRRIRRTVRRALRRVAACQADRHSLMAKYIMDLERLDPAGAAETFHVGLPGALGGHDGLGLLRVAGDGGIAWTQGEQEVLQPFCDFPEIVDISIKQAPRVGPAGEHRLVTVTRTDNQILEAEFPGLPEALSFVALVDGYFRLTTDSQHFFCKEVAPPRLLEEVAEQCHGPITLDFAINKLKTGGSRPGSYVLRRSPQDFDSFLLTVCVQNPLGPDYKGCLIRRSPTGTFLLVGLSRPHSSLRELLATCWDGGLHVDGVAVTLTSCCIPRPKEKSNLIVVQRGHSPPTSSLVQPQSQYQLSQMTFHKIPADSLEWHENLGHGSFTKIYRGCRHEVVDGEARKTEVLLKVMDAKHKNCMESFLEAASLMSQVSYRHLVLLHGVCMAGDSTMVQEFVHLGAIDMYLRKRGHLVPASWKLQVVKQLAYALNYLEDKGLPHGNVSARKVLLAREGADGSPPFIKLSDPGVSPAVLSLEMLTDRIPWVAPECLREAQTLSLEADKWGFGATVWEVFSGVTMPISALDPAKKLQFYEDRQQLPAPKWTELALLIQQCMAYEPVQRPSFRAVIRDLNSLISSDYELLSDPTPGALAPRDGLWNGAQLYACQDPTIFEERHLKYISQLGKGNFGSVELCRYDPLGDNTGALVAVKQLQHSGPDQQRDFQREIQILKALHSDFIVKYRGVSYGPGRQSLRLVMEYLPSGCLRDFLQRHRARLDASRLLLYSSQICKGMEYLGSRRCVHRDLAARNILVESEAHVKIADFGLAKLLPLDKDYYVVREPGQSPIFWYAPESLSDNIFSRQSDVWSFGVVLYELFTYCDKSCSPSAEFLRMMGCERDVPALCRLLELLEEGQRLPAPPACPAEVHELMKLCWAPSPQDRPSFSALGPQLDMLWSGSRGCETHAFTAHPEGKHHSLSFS

Row | Variant | effect of a mutation on the interaction
1 | Y371A | disrupting interaction
